The values below come from publication PMC12930632, “Free fatty acid receptor 2 allosterism is defined by cellular context” (Cell Communication and Signaling : CCS, 2026).

For one test, the target named is T1, FFA2R (GPR43) (Homo sapiens, UniProt O15552).
T1 construct: gene FFAR2; full-length WT receptor, transiently transfected in HEK293T cells together with a defined Galpha subunit, Rap1GAP-RlucII and rGFP-CAAX; plasmid from cDNA.org
T1 sequence (O15552 1-330): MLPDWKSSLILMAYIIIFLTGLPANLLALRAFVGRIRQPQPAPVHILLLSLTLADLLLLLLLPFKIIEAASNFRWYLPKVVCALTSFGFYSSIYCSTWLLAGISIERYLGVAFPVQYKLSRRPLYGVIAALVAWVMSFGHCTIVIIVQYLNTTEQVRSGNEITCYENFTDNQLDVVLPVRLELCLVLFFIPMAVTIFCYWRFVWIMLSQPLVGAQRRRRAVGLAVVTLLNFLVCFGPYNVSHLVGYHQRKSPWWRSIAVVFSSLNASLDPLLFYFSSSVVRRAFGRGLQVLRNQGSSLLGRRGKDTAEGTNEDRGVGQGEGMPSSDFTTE
As to the kind of experiment: ebBRET effector membrane translocation assay (Rap1GAP-RlucII / rGFP-CAAX), Galpha-i1 activation. The class given is cell-based. The text has this:
ebBRET effector membrane translocation assay (Rap1GAP-RlucII / rGFP-CAAX), Galpha-i1 activation on FFA2R (GPR43)

The target of test [1] is T2, free fatty acid receptor 2 (FFA2R; GPR43), WT (human) (UniProt O15552).
T2 sequence: T1 sequence (O15552 1-330)

The target in test [2] is T2, free fatty acid receptor 2 (FFA2R; GPR43), WT (human). This is another data set of the same source.
The target is the same in test [3]. The source holds these as a separate data set.

Like-named read-outs stand apart in the source and are kept apart here.

Sequence of β-arrestin2-RlucII (P32121 whole entry): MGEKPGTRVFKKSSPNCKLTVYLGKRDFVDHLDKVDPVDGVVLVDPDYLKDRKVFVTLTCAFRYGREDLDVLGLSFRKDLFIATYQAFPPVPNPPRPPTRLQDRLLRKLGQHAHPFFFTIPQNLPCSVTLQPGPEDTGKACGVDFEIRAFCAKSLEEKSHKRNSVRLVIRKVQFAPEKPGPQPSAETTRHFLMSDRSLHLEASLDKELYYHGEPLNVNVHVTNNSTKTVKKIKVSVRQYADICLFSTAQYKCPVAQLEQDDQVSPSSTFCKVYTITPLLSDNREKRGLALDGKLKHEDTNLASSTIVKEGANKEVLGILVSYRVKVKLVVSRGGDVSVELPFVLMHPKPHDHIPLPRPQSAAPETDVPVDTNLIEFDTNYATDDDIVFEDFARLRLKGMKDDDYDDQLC
Sequence of β-arrestin1-RlucII (P49407 whole entry): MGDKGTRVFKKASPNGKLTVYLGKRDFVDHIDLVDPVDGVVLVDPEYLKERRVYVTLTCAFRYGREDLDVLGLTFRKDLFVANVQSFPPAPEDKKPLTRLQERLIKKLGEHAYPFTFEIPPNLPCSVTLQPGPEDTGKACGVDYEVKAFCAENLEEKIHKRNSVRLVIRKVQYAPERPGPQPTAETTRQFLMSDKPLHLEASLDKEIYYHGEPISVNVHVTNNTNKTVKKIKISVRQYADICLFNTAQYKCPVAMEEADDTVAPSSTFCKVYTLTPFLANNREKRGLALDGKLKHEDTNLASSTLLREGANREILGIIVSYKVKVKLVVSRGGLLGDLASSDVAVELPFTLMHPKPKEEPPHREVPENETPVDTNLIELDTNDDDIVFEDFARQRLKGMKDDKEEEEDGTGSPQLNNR

As to `Cc1nc(NC(=N)N)sc1-c1cccc(NC(=O)c2ccc(F)cc2)c1` [AZ1729], the EC50 at FFA2R (GPR43) (read-out: AZ1729 / EC50) was 41 nM.
With `CC(C)(C)[C@H](C(=O)Nc1ncc(-c2ccccc2)s1)c1ccc(Cl)cc1` [Cmp58, (S)-2-(4-chlorophenyl)-3,3-dimethyl-N-(5-phenylthiazol-2-yl)butanamide], the EC50 on FFA2R (GPR43) (read-out: Cmp58 / EC50) came out at 2280 nM.
Take “Gα11 (from UniProt P29992 1-359) (natural protein)”: in test [1], the ebBRET (EMTA) max response, p63RhoGEF-RlucII + rGFP-CAAX, HEK293T; propionate series up to 1 mM is 1.82 ∆BRET^2. Moreover, the ebBRET (EMTA) max response, p63RhoGEF-RlucII + rGFP-CAAX, HEK293T; Cmp58 series, alone in test [2] is 0.33 ∆BRET^2. In addition, in test [3], the ebBRET (EMTA) max response, p63RhoGEF-RlucII + rGFP-CAAX, HEK293T; propionate series after AZ1729 (1 µM, 5 min), vehicle and modulator-alone signals subtracted was 1.36 ∆BRET^2; the ebBRET (EMTA) max response, p63RhoGEF-RlucII + rGFP-CAAX, HEK293T; propionate series after Cmp58 (1 µM, 5 min), vehicle and modulator-alone signals subtracted was 1.41 ∆BRET^2.
Consider “Gα13 (from UniProt Q14344 1-377) (natural protein)”, for which, in test [1], the ebBRET (EMTA) max response, PDZ-RhoGEF-RlucII + rGFP-CAAX, HEK293T; propionate series up to 1 mM was 0.588 ∆BRET^2.
With “Gα14 (from UniProt O95837 1-355) (natural protein)”, the ebBRET (EMTA) max response, p63RhoGEF-RlucII + rGFP-CAAX, HEK293T; propionate series up to 1 mM in test [1] was 0.677 ∆BRET^2. In test [2], the ebBRET (EMTA) max response, p63RhoGEF-RlucII + rGFP-CAAX, HEK293T; AZ1729 series, alone is 0.614 ∆BRET^2 and the ebBRET (EMTA) max response, p63RhoGEF-RlucII + rGFP-CAAX, HEK293T; Cmp58 series, alone is 0.195 ∆BRET^2.
As for “Gα15 (from UniProt P30679 1-374) (natural protein)”, the ebBRET (EMTA) max response, p63RhoGEF-RlucII + rGFP-CAAX, HEK293T; propionate series up to 1 mM in test [1] was 0.68 ∆BRET^2. For the same compound, in test [2], the ebBRET (EMTA) max response, p63RhoGEF-RlucII + rGFP-CAAX, HEK293T; AZ1729 series, alone is 0.74 ∆BRET^2; the ebBRET (EMTA) max response, p63RhoGEF-RlucII + rGFP-CAAX, HEK293T; Cmp58 + AZ1729 series, no propionate is 0.43 ∆BRET^2; the ebBRET (EMTA) max response, p63RhoGEF-RlucII + rGFP-CAAX, HEK293T; Cmp58 series, alone is 0.588 ∆BRET^2. In addition, in test [3], the ebBRET (EMTA) max response, p63RhoGEF-RlucII + rGFP-CAAX, HEK293T; propionate series after AZ1729 (a lower concentration than 1 µM, not given), vehicle and modulator-alone signals subtracted was 0.533 ∆BRET^2; the ebBRET (EMTA) max response, p63RhoGEF-RlucII + rGFP-CAAX, HEK293T; propionate series after Cmp58 (a lower concentration than 1 µM, not given), vehicle and modulator-alone signals subtracted was 0.503 ∆BRET^2.
Turning to “Gαi1 (from UniProt P63096 1-354) (natural protein)”, in test [1], the ebBRET (EMTA) max response, Rap1GAP-RlucII + rGFP-CAAX, HEK293T; propionate series up to 1 mM is 0.755 ∆BRET^2. In test [2], the ebBRET (EMTA) max response, Rap1GAP-RlucII + rGFP-CAAX, HEK293T; AZ1729 series, alone was 0.584 ∆BRET^2; the ebBRET (EMTA) max response, Rap1GAP-RlucII + rGFP-CAAX, HEK293T; Cmp58 + AZ1729 series, no propionate was 0.6 ∆BRET^2; the ebBRET (EMTA) max response, Rap1GAP-RlucII + rGFP-CAAX, HEK293T; Cmp58 series, alone was 0.525 ∆BRET^2. In test [3], the ebBRET (EMTA) max response, Rap1GAP-RlucII + rGFP-CAAX, HEK293T; propionate series after AZ1729 (1 µM, 5 min), vehicle and modulator-alone signals subtracted is 0.817 ∆BRET^2; the ebBRET (EMTA) max response, Rap1GAP-RlucII + rGFP-CAAX, HEK293T; propionate series after Cmp58 (1 µM, 5 min), vehicle and modulator-alone signals subtracted was 0.841 ∆BRET^2.
For “Gαi2 (from UniProt P04899 1-355) (natural protein)”, in test [1], the ebBRET (EMTA) max response, Rap1GAP-RlucII + rGFP-CAAX, HEK293T; propionate series up to 1 mM was 0.865 ∆BRET^2. Also, in test [2], the ebBRET (EMTA) max response, Rap1GAP-RlucII + rGFP-CAAX, HEK293T; AZ1729 series, alone was 0.664 ∆BRET^2; the ebBRET (EMTA) max response, Rap1GAP-RlucII + rGFP-CAAX, HEK293T; Cmp58 + AZ1729 series, no propionate was 0.59 ∆BRET^2; the ebBRET (EMTA) max response, Rap1GAP-RlucII + rGFP-CAAX, HEK293T; Cmp58 series, alone is 0.567 ∆BRET^2. For the same compound, in test [3], the ebBRET (EMTA) max response, Rap1GAP-RlucII + rGFP-CAAX, HEK293T; propionate series after AZ1729 (1 µM, 5 min), vehicle and modulator-alone signals subtracted is 0.481 ∆BRET^2; the ebBRET (EMTA) max response, Rap1GAP-RlucII + rGFP-CAAX, HEK293T; propionate series after Cmp58 (1 µM, 5 min), vehicle and modulator-alone signals subtracted was 0.74 ∆BRET^2.
In the case of “Gαi3 (from UniProt P08754 1-354) (natural protein)”, the ebBRET (EMTA) max response, Rap1GAP-RlucII + rGFP-CAAX, HEK293T; propionate series up to 1 mM in test [1] is 0.859 ∆BRET^2. Moreover, in test [2], the ebBRET (EMTA) max response, Rap1GAP-RlucII + rGFP-CAAX, HEK293T; AZ1729 series, alone is 0.553 ∆BRET^2; the ebBRET (EMTA) max response, Rap1GAP-RlucII + rGFP-CAAX, HEK293T; Cmp58 + AZ1729 series, no propionate was 0.485 ∆BRET^2; the ebBRET (EMTA) max response, Rap1GAP-RlucII + rGFP-CAAX, HEK293T; Cmp58 series, alone was 0.574 ∆BRET^2. Further, in test [3], the ebBRET (EMTA) max response, Rap1GAP-RlucII + rGFP-CAAX, HEK293T; propionate series after AZ1729 (1 µM, 5 min), vehicle and modulator-alone signals subtracted was 0.533 ∆BRET^2; the ebBRET (EMTA) max response, Rap1GAP-RlucII + rGFP-CAAX, HEK293T; propionate series after Cmp58 (1 µM, 5 min), vehicle and modulator-alone signals subtracted was 0.485 ∆BRET^2.
As to “GαoA (from UniProt P09471 1-354) (natural protein)”, in test [1], the ebBRET (EMTA) max response, Rap1GAP-RlucII + rGFP-CAAX, HEK293T; propionate series up to 1 mM is 0.415 ∆BRET^2. For the same compound, in test [2], the ebBRET (EMTA) max response, Rap1GAP-RlucII + rGFP-CAAX, HEK293T; AZ1729 series, alone is 0.19 ∆BRET^2 and the ebBRET (EMTA) max response, Rap1GAP-RlucII + rGFP-CAAX, HEK293T; Cmp58 series, alone is 0.237 ∆BRET^2.
For the compound “GαoB (from UniProt P09471-2 1-354) (natural protein)”, the ebBRET (EMTA) max response, Rap1GAP-RlucII + rGFP-CAAX, HEK293T; propionate series up to 1 mM in test [1] is 1.81 ∆BRET^2. In test [2], the ebBRET (EMTA) max response, Rap1GAP-RlucII + rGFP-CAAX, HEK293T; AZ1729 series, alone is 0.994 ∆BRET^2; the ebBRET (EMTA) max response, Rap1GAP-RlucII + rGFP-CAAX, HEK293T; Cmp58 + AZ1729 series, no propionate was 0.937 ∆BRET^2; the ebBRET (EMTA) max response, Rap1GAP-RlucII + rGFP-CAAX, HEK293T; Cmp58 series, alone was 0.742 ∆BRET^2. In test [3], the ebBRET (EMTA) max response, Rap1GAP-RlucII + rGFP-CAAX, HEK293T; propionate series after AZ1729 (1 µM, 5 min), vehicle and modulator-alone signals subtracted is 1.62 ∆BRET^2; the ebBRET (EMTA) max response, Rap1GAP-RlucII + rGFP-CAAX, HEK293T; propionate series after Cmp58 (1 µM, 5 min), vehicle and modulator-alone signals subtracted was 1.48 ∆BRET^2.
“Gαq (from UniProt P50148 1-359) (natural protein)”: the ebBRET (EMTA) max response, p63RhoGEF-RlucII + rGFP-CAAX, HEK293T; propionate series up to 1 mM in test [1] was 1.55 ∆BRET^2. In test [2], the ebBRET (EMTA) max response, p63RhoGEF-RlucII + rGFP-CAAX, HEK293T; AZ1729 series, alone is 0.337 ∆BRET^2; the ebBRET (EMTA) max response, p63RhoGEF-RlucII + rGFP-CAAX, HEK293T; Cmp58 + AZ1729 series, no propionate is 0.121 ∆BRET^2; the ebBRET (EMTA) max response, p63RhoGEF-RlucII + rGFP-CAAX, HEK293T; Cmp58 series, alone is 0.132 ∆BRET^2. In test [3], the ebBRET (EMTA) max response, p63RhoGEF-RlucII + rGFP-CAAX, HEK293T; propionate series after AZ1729 (1 µM, 5 min), vehicle and modulator-alone signals subtracted was 1.04 ∆BRET^2; the ebBRET (EMTA) max response, p63RhoGEF-RlucII + rGFP-CAAX, HEK293T; propionate series after Cmp58 (1 µM, 5 min), vehicle and modulator-alone signals subtracted is 1.01 ∆BRET^2.
Consider “Gαz (from UniProt P19086 1-355) (natural protein)”, for which the ebBRET (EMTA) max response, Rap1GAP-RlucII + rGFP-CAAX, HEK293T; propionate series up to 1 mM in test [1] is 0.757 ∆BRET^2.
As to “β-arrestin1-RlucII (from UniProt P49407 1-418) (natural protein)”, in test [1], the ebBRET max response, β-arrestin1-RlucII + rGFP-CAAX (with or without GRK2), HEK293T; propionate series up to 1 mM was 0.23 ∆BRET^2. In test [2], the ebBRET max response, β-arrestin1-RlucII + rGFP-CAAX (with or without GRK2), HEK293T; AZ1729 series, alone was 0.166 ∆BRET^2 and the ebBRET max response, β-arrestin1-RlucII + rGFP-CAAX (with or without GRK2), HEK293T; Cmp58 series, alone was 0.0827 ∆BRET^2.
Consider “β-arrestin2-RlucII (from UniProt P32121 1-409) (natural protein)”, for which, in test [1], the ebBRET max response, β-arrestin2-RlucII + rGFP-CAAX (with or without GRK2), HEK293T; propionate series up to 1 mM was 0.799 ∆BRET^2. Besides, in test [3], the ebBRET max response, β-arrestin2-RlucII + rGFP-CAAX (with or without GRK2), HEK293T; propionate series after AZ1729 (1 µM, 5 min), vehicle and modulator-alone signals subtracted was 0.775 ∆BRET^2; the ebBRET max response, β-arrestin2-RlucII + rGFP-CAAX (with or without GRK2), HEK293T; propionate series after Cmp58 (1 µM, 5 min), vehicle and modulator-alone signals subtracted was 0.774 ∆BRET^2.
